Assay results published in patent publication US20110118131A1 (published 2011).

target: T1, IL-1β (UniProt P01584 117-269); test: Biacore, periplasmic extract
T1 construct: Antigen immobilised on the Biacore chip

Binder	fold difference in affinity vs original [fold]	binding result
XPA23 light chain D92S (Fab, V domains shown) VH: EVQLLESGGGLVQPGGSLRLSCAASGFTFSKYFMFWVRQAPGKGLEWVSVISPSGGMTRYADSVKGRFTISRDNSKNTLYLQMNSLRAEDTAVYYCARVGYGGNSDYWGQGTLVTVSS VL: DIQMTQSPSSVSASVGDRLTIICRASQDINRWLAWYQQTPGNAPKLLIHSATSLQSGVPSRFSGSGSGTDFTLTINSLQPEDFATYYCQQASSFPLTFGGGTKVEIK	6.59	
XPA23 light chain F94Q (Fab, V domains shown) VH: EVQLLESGGGLVQPGGSLRLSCAASGFTFSKYFMFWVRQAPGKGLEWVSVISPSGGMTRYADSVKGRFTISRDNSKNTLYLQMNSLRAEDTAVYYCARVGYGGNSDYWGQGTLVTVSS VL: DIQMTQSPSSVSASVGDRLTIICRASQDINRWLAWYQQTPGNAPKLLIHSATSLQSGVPSRFSGSGSGTDFTLTINSLQPEDFATYYCQQADSQPLTFGGGTKVEIK		no binding
XPA23 light chain F94H (Fab, V domains shown) VH: EVQLLESGGGLVQPGGSLRLSCAASGFTFSKYFMFWVRQAPGKGLEWVSVISPSGGMTRYADSVKGRFTISRDNSKNTLYLQMNSLRAEDTAVYYCARVGYGGNSDYWGQGTLVTVSS VL: DIQMTQSPSSVSASVGDRLTIICRASQDINRWLAWYQQTPGNAPKLLIHSATSLQSGVPSRFSGSGSGTDFTLTINSLQPEDFATYYCQQADSHPLTFGGGTKVEIK		no binding
XPA23 light chain F94K (Fab, V domains shown) VH: EVQLLESGGGLVQPGGSLRLSCAASGFTFSKYFMFWVRQAPGKGLEWVSVISPSGGMTRYADSVKGRFTISRDNSKNTLYLQMNSLRAEDTAVYYCARVGYGGNSDYWGQGTLVTVSS VL: DIQMTQSPSSVSASVGDRLTIICRASQDINRWLAWYQQTPGNAPKLLIHSATSLQSGVPSRFSGSGSGTDFTLTINSLQPEDFATYYCQQADSKPLTFGGGTKVEIK		no binding
XPA23 light chain F94E (Fab, V domains shown) VH: EVQLLESGGGLVQPGGSLRLSCAASGFTFSKYFMFWVRQAPGKGLEWVSVISPSGGMTRYADSVKGRFTISRDNSKNTLYLQMNSLRAEDTAVYYCARVGYGGNSDYWGQGTLVTVSS VL: DIQMTQSPSSVSASVGDRLTIICRASQDINRWLAWYQQTPGNAPKLLIHSATSLQSGVPSRFSGSGSGTDFTLTINSLQPEDFATYYCQQADSEPLTFGGGTKVEIK		no binding
XPA23 light chain D92Y (Fab, V domains shown) VH: EVQLLESGGGLVQPGGSLRLSCAASGFTFSKYFMFWVRQAPGKGLEWVSVISPSGGMTRYADSVKGRFTISRDNSKNTLYLQMNSLRAEDTAVYYCARVGYGGNSDYWGQGTLVTVSS VL: DIQMTQSPSSVSASVGDRLTIICRASQDINRWLAWYQQTPGNAPKLLIHSATSLQSGVPSRFSGSGSGTDFTLTINSLQPEDFATYYCQQAYSFPLTFGGGTKVEIK		no binding
XPA23 light chain F94Y (Fab, V domains shown) VH: EVQLLESGGGLVQPGGSLRLSCAASGFTFSKYFMFWVRQAPGKGLEWVSVISPSGGMTRYADSVKGRFTISRDNSKNTLYLQMNSLRAEDTAVYYCARVGYGGNSDYWGQGTLVTVSS VL: DIQMTQSPSSVSASVGDRLTIICRASQDINRWLAWYQQTPGNAPKLLIHSATSLQSGVPSRFSGSGSGTDFTLTINSLQPEDFATYYCQQADSYPLTFGGGTKVEIK		no binding
XPA23 light chain H49L (Fab, V domains shown) VH: EVQLLESGGGLVQPGGSLRLSCAASGFTFSKYFMFWVRQAPGKGLEWVSVISPSGGMTRYADSVKGRFTISRDNSKNTLYLQMNSLRAEDTAVYYCARVGYGGNSDYWGQGTLVTVSS VL: DIQMTQSPSSVSASVGDRLTIICRASQDINRWLAWYQQTPGNAPKLLILSATSLQSGVPSRFSGSGSGTDFTLTINSLQPEDFATYYCQQADSFPLTFGGGTKVEIK	0.07	
XPA23 light chain H49F (Fab, V domains shown) VH: EVQLLESGGGLVQPGGSLRLSCAASGFTFSKYFMFWVRQAPGKGLEWVSVISPSGGMTRYADSVKGRFTISRDNSKNTLYLQMNSLRAEDTAVYYCARVGYGGNSDYWGQGTLVTVSS VL: DIQMTQSPSSVSASVGDRLTIICRASQDINRWLAWYQQTPGNAPKLLIFSATSLQSGVPSRFSGSGSGTDFTLTINSLQPEDFATYYCQQADSFPLTFGGGTKVEIK	0.5	
XPA23 light chain F94N (Fab, V domains shown) VH: EVQLLESGGGLVQPGGSLRLSCAASGFTFSKYFMFWVRQAPGKGLEWVSVISPSGGMTRYADSVKGRFTISRDNSKNTLYLQMNSLRAEDTAVYYCARVGYGGNSDYWGQGTLVTVSS VL: DIQMTQSPSSVSASVGDRLTIICRASQDINRWLAWYQQTPGNAPKLLIHSATSLQSGVPSRFSGSGSGTDFTLTINSLQPEDFATYYCQQADSNPLTFGGGTKVEIK		no binding
XPA23 light chain H49A (Fab, V domains shown) VH: EVQLLESGGGLVQPGGSLRLSCAASGFTFSKYFMFWVRQAPGKGLEWVSVISPSGGMTRYADSVKGRFTISRDNSKNTLYLQMNSLRAEDTAVYYCARVGYGGNSDYWGQGTLVTVSS VL: DIQMTQSPSSVSASVGDRLTIICRASQDINRWLAWYQQTPGNAPKLLIASATSLQSGVPSRFSGSGSGTDFTLTINSLQPEDFATYYCQQADSFPLTFGGGTKVEIK	0.23	
XPA23 light chain H49N (Fab, V domains shown) VH: EVQLLESGGGLVQPGGSLRLSCAASGFTFSKYFMFWVRQAPGKGLEWVSVISPSGGMTRYADSVKGRFTISRDNSKNTLYLQMNSLRAEDTAVYYCARVGYGGNSDYWGQGTLVTVSS VL: DIQMTQSPSSVSASVGDRLTIICRASQDINRWLAWYQQTPGNAPKLLINSATSLQSGVPSRFSGSGSGTDFTLTINSLQPEDFATYYCQQADSFPLTFGGGTKVEIK	0.31	
XPA23 light chain H49E (Fab, V domains shown) VH: EVQLLESGGGLVQPGGSLRLSCAASGFTFSKYFMFWVRQAPGKGLEWVSVISPSGGMTRYADSVKGRFTISRDNSKNTLYLQMNSLRAEDTAVYYCARVGYGGNSDYWGQGTLVTVSS VL: DIQMTQSPSSVSASVGDRLTIICRASQDINRWLAWYQQTPGNAPKLLIESATSLQSGVPSRFSGSGSGTDFTLTINSLQPEDFATYYCQQADSFPLTFGGGTKVEIK		no binding
XPA23 light chain H49I (Fab, V domains shown) VH: EVQLLESGGGLVQPGGSLRLSCAASGFTFSKYFMFWVRQAPGKGLEWVSVISPSGGMTRYADSVKGRFTISRDNSKNTLYLQMNSLRAEDTAVYYCARVGYGGNSDYWGQGTLVTVSS VL: DIQMTQSPSSVSASVGDRLTIICRASQDINRWLAWYQQTPGNAPKLLIISATSLQSGVPSRFSGSGSGTDFTLTINSLQPEDFATYYCQQADSFPLTFGGGTKVEIK		no binding
XPA23 light chain F94W (Fab, V domains shown) VH: EVQLLESGGGLVQPGGSLRLSCAASGFTFSKYFMFWVRQAPGKGLEWVSVISPSGGMTRYADSVKGRFTISRDNSKNTLYLQMNSLRAEDTAVYYCARVGYGGNSDYWGQGTLVTVSS VL: DIQMTQSPSSVSASVGDRLTIICRASQDINRWLAWYQQTPGNAPKLLIHSATSLQSGVPSRFSGSGSGTDFTLTINSLQPEDFATYYCQQADSWPLTFGGGTKVEIK		no binding
XPA23 light chain H49G (Fab, V domains shown) VH: EVQLLESGGGLVQPGGSLRLSCAASGFTFSKYFMFWVRQAPGKGLEWVSVISPSGGMTRYADSVKGRFTISRDNSKNTLYLQMNSLRAEDTAVYYCARVGYGGNSDYWGQGTLVTVSS VL: DIQMTQSPSSVSASVGDRLTIICRASQDINRWLAWYQQTPGNAPKLLIGSATSLQSGVPSRFSGSGSGTDFTLTINSLQPEDFATYYCQQADSFPLTFGGGTKVEIK		no binding
XPA23 light chain D92W (Fab, V domains shown) VH: EVQLLESGGGLVQPGGSLRLSCAASGFTFSKYFMFWVRQAPGKGLEWVSVISPSGGMTRYADSVKGRFTISRDNSKNTLYLQMNSLRAEDTAVYYCARVGYGGNSDYWGQGTLVTVSS VL: DIQMTQSPSSVSASVGDRLTIICRASQDINRWLAWYQQTPGNAPKLLIHSATSLQSGVPSRFSGSGSGTDFTLTINSLQPEDFATYYCQQAWSFPLTFGGGTKVEIK	0.12	
XPA23 light chain H49K (Fab, V domains shown) VH: EVQLLESGGGLVQPGGSLRLSCAASGFTFSKYFMFWVRQAPGKGLEWVSVISPSGGMTRYADSVKGRFTISRDNSKNTLYLQMNSLRAEDTAVYYCARVGYGGNSDYWGQGTLVTVSS VL: DIQMTQSPSSVSASVGDRLTIICRASQDINRWLAWYQQTPGNAPKLLIKSATSLQSGVPSRFSGSGSGTDFTLTINSLQPEDFATYYCQQADSFPLTFGGGTKVEIK	0.1	
XPA23 light chain F94S (Fab, V domains shown) VH: EVQLLESGGGLVQPGGSLRLSCAASGFTFSKYFMFWVRQAPGKGLEWVSVISPSGGMTRYADSVKGRFTISRDNSKNTLYLQMNSLRAEDTAVYYCARVGYGGNSDYWGQGTLVTVSS VL: DIQMTQSPSSVSASVGDRLTIICRASQDINRWLAWYQQTPGNAPKLLIHSATSLQSGVPSRFSGSGSGTDFTLTINSLQPEDFATYYCQQADSSPLTFGGGTKVEIK		no binding
XPA23 light chain H49D (Fab, V domains shown) VH: EVQLLESGGGLVQPGGSLRLSCAASGFTFSKYFMFWVRQAPGKGLEWVSVISPSGGMTRYADSVKGRFTISRDNSKNTLYLQMNSLRAEDTAVYYCARVGYGGNSDYWGQGTLVTVSS VL: DIQMTQSPSSVSASVGDRLTIICRASQDINRWLAWYQQTPGNAPKLLIDSATSLQSGVPSRFSGSGSGTDFTLTINSLQPEDFATYYCQQADSFPLTFGGGTKVEIK	0.11	
XPA23 light chain F94R (Fab, V domains shown) VH: EVQLLESGGGLVQPGGSLRLSCAASGFTFSKYFMFWVRQAPGKGLEWVSVISPSGGMTRYADSVKGRFTISRDNSKNTLYLQMNSLRAEDTAVYYCARVGYGGNSDYWGQGTLVTVSS VL: DIQMTQSPSSVSASVGDRLTIICRASQDINRWLAWYQQTPGNAPKLLIHSATSLQSGVPSRFSGSGSGTDFTLTINSLQPEDFATYYCQQADSRPLTFGGGTKVEIK		no binding
XPA23 light chain F94D (Fab, V domains shown) VH: EVQLLESGGGLVQPGGSLRLSCAASGFTFSKYFMFWVRQAPGKGLEWVSVISPSGGMTRYADSVKGRFTISRDNSKNTLYLQMNSLRAEDTAVYYCARVGYGGNSDYWGQGTLVTVSS VL: DIQMTQSPSSVSASVGDRLTIICRASQDINRWLAWYQQTPGNAPKLLIHSATSLQSGVPSRFSGSGSGTDFTLTINSLQPEDFATYYCQQADSDPLTFGGGTKVEIK		no binding
